B1: MR17 (synthetic nanobody, sybody) (VHH)
VHH: QVQLVESGGGLVQAGGSLRLSCAASGFPVEVWRMEWYRQAPGKEREGVAAIESYGHGTRYADSVKGRFTISRDNAKNTVYLQMNSLKPEDTAVYYCNVKDDGQLAYHYDYWGQGTQVTVSA
B2: MR6 (synthetic nanobody, sybody) (VHH)
VHH: QVQLVESGGGLVQAGGSLRLSCAASGFPVEDTWMEWYRQAPGKEREWVAAITSWGFKTYYADSVKGRFTISRDNAKNTVYLQMNSLKPEDTAVYYCNVKDEGDTSASYDYWGQGTQVTVSS

What was measured:
[1] = target: T1, SARS-CoV-2 Spike receptor-binding domain (residues 330-541) (SARS-CoV-2, UniProt P0DTC2 330-541); assay: BLI
[2] = target: T1, SARS-CoV-2 Spike receptor-binding …; assay: BLI; remark: listed apart in the source

Row | Binder | Kd [1] | koff [2]
1 | B1 | 83.7 nM | 0.0097 s⁻¹
2 | B2 |  | 0.0072 s⁻¹

Source: PMC7959386 (2021)
